Where “and” joins values, the source holds several entries; their conditions need not be identical. Identical values can stand only once.

Experimental findings from publication PMC7098737 are described below.

Test [1] addresses recombinant human mannan-binding lectin M1 (6xHis, MAKT, human IgG1 Fc C220-G446, Arg linker, human MBL2 neck and CRD 81-228) (human) (UniProt P11226). Description: native gel or EMSA; native PAGE of purified M1 and of purified M2; oligomer size from the apparent molecular weight against the monomer's size by SDS-PAGE; for M2 the names trimer, tetramer, pentamer count subunits of three 32-kDa chains.

The target of test [2] is M2-Strep-tag II fusion protein (Strep II tag, 6xHis tag, full-length human MBL2) (human) (UniProt P11226). The test is described as above.

A word on the stoichiometry N: it is a count of units in the complex or per binding partner. “recombinant human mannan-binding lectin M1 (6xHis, MAKT, human IgG1 Fc C220-G446, Arg linker, human MBL2 neck and CRD 81-228) (from UniProt P11226 101-248) (Fc fusion)”: the stoichiometry N in test [1] is 6 monomers.

Turning to “M2-Strep-tag II fusion protein (Strep II tag, 6xHis tag, full-length human MBL2) (from UniProt P11226 21-248) (natural protein)”, in test [2], the stoichiometry N is 4 and 3 and 5.
